From patent publication US20150329597A1

Tests used:
[1] = molecular target: RSV F monomer (uncleaved RSV F Delp23 Furdel; Delp23 Furdel Truncated HIS construct) (respiratory syncytial virus); assay: analytical HPLC-SEC of F monomer with 1:1 molar D25 Fab; monomer alone ~11.5 min
[2] = molecular target: RSV F monomer (uncleaved RSV F Delp23 Furdel; Delp23 Furdel Truncated HIS construct) (respiratory syncytial virus); assay: SPR (BIAcore), D25 Fab immobilised on CM5 chip, F monomer as analyte, 1:1 fit
[3] = molecular target: RSV F monomer (uncleaved RSV F Delp23 Furdel; Delp23 Furdel Truncated HIS construct) (respiratory syncytial virus); assay: preparatory SEC of F monomer with D25 Fab at 1:1 molar ratio; monomer alone ~1.4 mls
[4] = molecular target: RSV F trimerized-monomer: RSV Monomer (Delp23 Furdel) + HRA peptide (respiratory syncytial virus); assay: preparatory SEC of the trimerized F fraction with about 10-fold excess D25 Fab; trimerized monomer alone ~1.2 mls

D25 Fab harboring a HIS-tag and Strep-tag
Retention Time Wyatt SEC WTC-030S5 (mixture) [1]: 10.3 min
Kd [2]: 0.053 nM
koff [2]: 9.9e-06 s⁻¹
kon [2]: 190000 M⁻¹ s⁻¹
Retention Volume Micro-Superdex 200 (mixture) [3]: 1.3 mls
Retention Volume Micro-Superdex 200 (mixture) [4]: 1.1 mls
